{"source": "paper PMC4320627", "about": "“Transcription factor MrpC binds to promoter regions of hundreds of developmentally-regulated genes in Myxococcus xanthus”", "molecules": {"B1": {"name": "MXAN_0524 probe A (dsDNA)", "DNA 1": "CCGTCCCAACAACTGATACACAGTCAACGTTTCTCCATCC", "DNA 2": "GGATGGAGAAACGTTGACTGTGTATCAGTTGTTGGGACGG"}, "B2": {"name": "MXAN_0524 probe C (dsDNA)", "DNA 1": "CATCCAGCCCACCTGTCCTCCACTGAACACGTACTGGCAC", "DNA 2": "GTGCCAGTACGTGTTCAGTGGAGGACAGGTGGGCTGGATG"}, "B3": {"name": "MXAN_0524 probe B (dsDNA)", "DNA 1": "CACAGTCAACGTTTCTCCATCCAGCCCACCTGTCCTCCAC", "DNA 2": "GTGGAGGACAGGTGGGCTGGATGGAGAAACGTTGACTGTG"}}, "data": [{"target": "T1, FruA-His6 (Myxococcus xanthus) (UniProt Q1D7Q3)", "T1 sequence": "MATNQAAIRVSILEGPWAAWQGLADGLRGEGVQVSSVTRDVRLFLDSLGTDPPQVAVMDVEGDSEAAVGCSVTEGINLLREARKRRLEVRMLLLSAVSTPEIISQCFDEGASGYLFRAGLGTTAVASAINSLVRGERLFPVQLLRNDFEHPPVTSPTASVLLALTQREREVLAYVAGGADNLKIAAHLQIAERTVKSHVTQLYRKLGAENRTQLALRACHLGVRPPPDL", "assay": "EMSA", "settings": "2 nM 32P-labeled DNA, 25 C, 15 min, buffer as in cited ref 127 (not given)", "values": [{"molecule": "CAAGGTGATGATGTGCGTCGAGGCTATCGGCCATGTGCGGGAGCGTCAATGTTCGGACCGGGCGGAATTCCGGCTGCCCGGGGAGCGGGCAAGCGCCGTCACACAGCCGACGTTTCCGTCACTGAGGGTACGTCGGGTACGTCACTGGCTCGACGGAGATGGGCGGCCAGGAGTGCGGCGTGCGCGGCGCGGGCGGGAGCGAATACAGCGGCTCG (double strand) [frzS PCR]", "binding": "no binding"}, {"molecule": "CCAGGGAACGTAGAAGTCTGGCAGTTCGAATGGCTGCTTGTTTTTCGCCGTACTCATGGACGCCCCTCGTTGAACTCAGGGGGGCGTTATAGTTAGGCGCTGAACACTTATCCAAGTGTTTCTTGCATAAAAGATTCTCTGGAGAAGTCGCGATTTGCCTGCTGGCGCACGGATTTAGCTCCATCCGTGCGCCGTATTGCTC (double strand) [MXAN_6247 PCR]", "binding": "binds"}, {"molecule": "CGAGCTCCTGTGAACCGAAGTCATGCTGCTGGTAGGAGCCCGCTGGGTCTGCCCAGACCTCGCCAATGAGGCGCTGGTCCATTAATTGCTCAACGCAACAACTTGCGAAGCAGTCTGTCGGCTACTTGACCGTGCTTGCCAGTGAATGAGAAGTGACGCCTGCGTGCTGACCGTAATGGGACAGGCGGGGACCATGTATATGAGGTGGAAGAAGC (double strand) [MXAN_5802 PCR]", "binding": "no binding"}, {"molecule": "CTCGTTTACGAACTCGTCTGGTCCAAGTACCTCGGGAATGTCCTGGGGAACAGCGGCCAGGCGCATGCCGTGGTGCTCGCCACGTTCATGGGAGGGCAAGCGCTGGGCGCATTTGTCTTCGGGCGGACAGCCGACCGGGCAAAGAACCCCCTGGCCCTTTACGGCCTGCTGGAGCTGGGCGTGGGCCTGTACGCGCTGGTCTTC (double strand) [mrpA PCR]", "binding": "binds more weakly"}, {"molecule": "GATTAGCACTACGCATGCCAACCCAGGTGCGCACTCCAAGCCCCCCAATTCTCAAGGCTTGGAACAATCCCCTCGGCGAGGATGGGTCCAGGGCTGACAAAATTCGGCAGTGACGCTGACGATAACTGTCGATCAGCCTACGCATCCGAAGCGCTCCCGGGCTCCAAGTCATCCGTCAGCCCATGCTTGGCCAACCGGTAGCGGAATGAACGGAACGAAAG (double strand) [pilA PCR]", "binding": "no binding"}, {"molecule": "GGATTTGCCTTTGCACCTCCAGAACCACCAGTGGGTGAAACAATGTCAACGGGAGTCCTTCGCCACGGCCTTGATTGTCCCTTAGCAAACACAGTGAACCGCACAGCGACAAGGCAGGAATTCGCCCACGCTGGACTCACGGCACGTCGGAAGCATCTCTTGGGAATCAAGAATTGAGTGAGGTCCATCGCCCTGCAATCGATGGCAAAGAG (double strand) [pkn8 PCR]", "binding": "no binding"}, {"molecule": "GGCGAACGGGACTTTCCTTCTCCAAGGTTCGTGCCAGCGGGAATTGAAATGCCGCCGGGACAACACCTCCTGAAATGCCGGGTACTTAGCGCTACAGGCCCGCACCAGAGCCCGTTCTGTGTCCAAAACCTGAAACAGAACGTTCAAACAGTCTGATCAATTTGAACGAAACGTTCAAACCGGGGGCATGAGTGTCGGAGCAG (double strand) [mrpC upstream PCR]", "binding": "no binding"}, {"molecule": "GTACCAACTCGCGCACGTCGGGTGCGGGCAGTCCGTAGCGCTGGCCGTTCAGGGTGAACAGCAGCACCTCCGTGGGTGCGGGGGTCATGTCCTGGGACATAAGACGTGGGCGTGGCCACTGTCGAACATTGATGTCGGCCCGCGGTCGCGGTGTCCACCAGTCCTCAGTGGAGGCAGGAGGAGGGGCCCATGGTTCGGGGGGAACACGACAGGTGCTCGCTGTGC (double strand) [cheW6a PCR]", "binding": "binds"}, {"molecule": "GTCTTCCTTGTTGATGAGCCCCGGAGGGGCCATCGCGGTGGGCATAGCGCTCGCAGCGGAGCCCTTCTTCTTCTCATCGGACATGAAATTCAGCCTTTTCTCTTCGACAACCAGTGAACATTTCCAGGTTTTCTGCGGCGGATGAACCAACGTAACAACCAAAACGGACATGGCAAACGCAGTGTGCGTTTTTCCGCCCCCCGTCACCTCTCCAGGGTTCCTCGGAAGTC (double strand) [bsgA PCR]", "binding": "binds"}, {"molecule": "GTGGGCATCCACGAAGCGCGCCCCGGACTGGTGCGCCCCCTGCTGTCGTGCACGCGGGAGGAGGTGGTGGCCTTCCTGGCGGAGCAGGGTGTCGCCTATGTGACAGACCCGATGAACACCGACCCTGTCCACTTCCGGACGCGCGTTCGCCTTGGAGTGCTACCCGCCCTGTCGCGCGCCGCTGGCTTCGCGGTGGAGG (double strand) [MXAN_4360 PCR]", "binding": "binds more weakly"}]}, {"target": "T2, His10-MrpC2 (Myxococcus xanthus, UniProt Q1D244 26-248)", "T2 sequence": "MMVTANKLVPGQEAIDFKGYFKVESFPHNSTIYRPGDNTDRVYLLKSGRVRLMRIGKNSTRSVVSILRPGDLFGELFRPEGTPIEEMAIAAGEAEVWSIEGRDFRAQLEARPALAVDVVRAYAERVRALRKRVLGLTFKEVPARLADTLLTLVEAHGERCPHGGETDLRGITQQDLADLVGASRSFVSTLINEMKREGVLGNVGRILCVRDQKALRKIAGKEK", "assay": "EMSA; 1 uM protein; EMSA, 2 nM 32P-labeled DNA, 25 C, 15 min; buffer as in cited ref 127 (not given)", "settings": "protein: recombinant; tags: N-terminal His10; chain copies: 2; label: 32P; blunt", "values": [{"molecule": "B1", "binding result": "binds"}, {"molecule": "B2", "binding result": "binds"}, {"molecule": "B3", "binding result": "no binding"}]}]}
